Results as given in patent US6010897, “Expression of signal-peptide-free staphylokinases” (dated 2000).

B1: N10ΔSAK42D (SAK42D shortened by 10 amino acids at the N-terminus) (other)
chain: KGDDASYFEPTGPYLMVNVTGVDGKRNELLSPRYVEFPIKPGTTLTKEKIEYYVEWALDATAYKEFRVVELDPSAKIEVTYYDKNKKKEETKSFPITEKGFVVPDLSEHIKNPGFNLITKVVIEKK
B2: SAK42D (mature native staphylokinase of S. aureus phage 42D, expressed free of signal peptide in E. coli TG1(pMEX602sak)) (other)
chain: SSSFDKGKYKKGDDASYFEPTGPYLMVNVTGVDGKRNELLSPRYVEFPIKPGTTLTKEKIEYYVEWALDATAYKEFRVVELDPSAKIEVTYYDKNKKKEETKSFPITEKGFVVPDLSEHIKNPGFNLITKVVIEKK
B3: N14ΔSAK42D (SAK42D shortened by 14 amino acids at the N-terminus) (other)
chain: ASYFEPTGPYLMVNVTGVDGKRNELLSPRYVEFPIKPGTTLTKEKIEYYVEWALDATAYKEFRVVELDPSAKIEVTYYDKNKKKEETKSFPITEKGFVVPDLSEHIKNPGFNLITKVVIEKK

Target: human plasminogen, isolated from human plasma and immobilized on Protein-Pak epoxy-activated carrier (human, UniProt P00747)
Test: analytical affinity chromatography on immobilized human plasminogen, 16° C.

Row | Molecule | Kd [nM]
1 | B1 | 2210
2 | B2 | 1480
3 | B3 | 4400

Target: plasminogen (species not stated)
Test: not given

Row | Molecule | specific activity in µmol plasmin/(µmol SAK × min) (µmol plasmin/(µmol SAK × min))
4 | SAK42D (mature native staphylokinase of S. aureus phage 42D, expressed free of signal peptide in E. coli TG1(pMEX602sak)) (from UniProt P15240) | 16.2
5 | SAKM26L (artificial allelic SAK form) | 36.6
6 | N14ΔSAK42D (SAK42D shortened by 14 amino acids at the N-terminus) | 8.1
7 | SAKM26C (artificial allelic SAK form) | 21.1
8 | N10ΔSAK42D (SAK42D shortened by 10 amino acids at the N-terminus) | 22.7
